Reference: patent US6884600B1, “Protein phosphatase-1 catalytic subunit interactions” (Medical Research Council London, priority 1996, dated 2005)
Like-named read-outs stand apart in the source and are kept apart here.

Experiments:
[1] = target: PP1; settings: Beullens et al., 1992; read-out: inhibitory constant for PP1; cited from earlier work
[2] = tested on: PP1GL; assay: Phosphorylase phosphatase activity of PP1GL (hepatic glycogen particles); assay type: biochemical, rat; settings: hepatic glycogen particles containing PP1-GL
Procedure: Hepatic glycogen particles were diluted in assay buffer to 0.6 phosphorylase phosphatase (PhP) mU per ml, incubated for 15 minutes at 30° C. with GM-(G63-T93) (closed circles), GM-(G63-K80) (open circles) or GM-(G63-N75) (closed triangles) and assayed as described in Example 1. The open triangles show the effect of GM-(G63-N75) which had been phosphorylated at Ser67 by PKA (pGM-(G63-N75)). Similar results were obtained in four experiments.
(A) Hepatic glycogen protein particles containing PP1-GL were diluted and incubated for 15 min at 30° C. with the indicated concentrations of either M110[M1-F38] (open circles) or M110[M1-K35] (closed circles) and the phosphatase reactions were initiated by addition of ^32P-labelled glycogen phosphorylase. The results are expressed as a percentage of the activity determined in control incubations where the M110 peptides were omitted. Similar results were obtained in three separate experiments. (B) The experiment was carried out as in (A), except that the peptide GM[G63-N75] (“wild type”, WT) and variants in which either Val 66 (V66A) (closed triangles) or Phe 68 (F68A) (closed circles) were changed to Ala, were used instead of the M110 peptides. Similar results were obtained in three separate experiments.
The myosin-associated form of PP1 (PP1M) was from chicken gizzard and the glycogen-associated form of PP1 (PP1G) from rabbit skeletal muscle. […]

[3] = target: T1, PP1c (Oryctolagus cuniculus, UniProt P62143); assay: Phosphorylase phosphatase activity of PP1c; assay type: biochemical, rabbit
T1 construct: from tissue; host or cells: rabbit skeletal muscle (PP1G dissociated with LiBr)
Procedure: (§1) A,B; Effects of M110-(M1-E309) (closed circles), M110-(M1-F38) (open circles) and M110-(D39-E309) (open triangles) on the MLC20 phosphatase […] and phosphorylase phosphatase (B) activities of PP1c were measured after incubating PP1c for 15 minutes at 30° C. with each fragment. The results are presented as a percentage of those obtained in experiments where the M110 fragments were omitted.
(§2) C,D; The effect of M110-(M1-A150) (open circles) and M110-(L24-Y496) (closed circles) on the MLC20 phosphatase (C) and phosphorylase phosphatase (D) activities of PP1c were measured as in A,B.
(B) The phosphorylase phosphatase activity of PP1c was assayed as in A in the presence or absence of 1 μM GM-(G63-T93) and 1.0 nM M110-(M1-E309). The results are presented (SEM for three experiments) as a percentage of the PP1c activity measured in the absence of GM-(63-T93), M110-(M1-F38) or M110-(M1-E309).
(§3) The myosin-associated form of PP1 (PP1M) was from chicken gizzard and the glycogen-associated form of PP1 (PP1G) from rabbit skeletal muscle. The β isoform of PP1c was released from PP1G by incubation for 2 hours in 2M LiBr, then purified by gel-filtration on a 30×1 cm column of Superose 12 (Pharmacia, Milton Keynes, U.K.) in the presence of 0.5M LiBr. Glycogen protein particles from rat liver were used as the source of hepatic PP1G Digoxygenin-labelled PP1c (γ1-isoform, hereafter termed PP1) was prepared as in [9]. GL was expressed in E. coli as a glutathione-S-transferase (GST) fusion protein [7], termed GST-GL. The catalytic subunit of PP2A from bovine heart (PP2AC) was provided by Dr R. MacKintosh in this Unit. The phosphorylatable myosin light chain (MLC20) and heavy meromyosin from chicken gizzard were a gift from Dr M. Ikebe (Case Western Reserve University, Cleveland, USA). Thrombin and benzamidine-Agarose were purchased from Sigma (Poole, UK).
(§4) ^32P-labelled rabbit skeletal muscle phosphorylase a (containing 1.0 mol phosphate per mol subunit) was prepared by phosphorylation with phosphorylase kinase, ^32P-labelled rabbit skeletal muscle glycogen synthase (containing 1.5 mol/mol subunit in the sites 3 region) was prepared by phosphorylation with glycogen synthase kinase-3 [24]). ^32P-labelled chicken gizzard MLC20 and ^32P-labelled chicken gizzard heavy meromyosin (containing 1.0 mol phosphate per mol subunit) were prepared by phosphorylation with smooth muscle myosin light chain kinase. The dephosphorylation of phosphorylase a (10 μM), glycogen synthase (1 μM) and MLC20 (1 μM) and heavy meromyosin (1 μM) was carried out as in [24]. One unit of activity (U) was that amount which released […] of phosphate in one minute.
(§5) PP1c was isolated from the rabbit skeletal muscle PP1-GM complex as described previously (Johnson et al, 1996). Glycogen particles isolated from rat liver (Schelling el al, 1988) served as the source of PP1-GL. The dephosphorylation of glycogen phosphorylase (10 μM) and the isolated MLC20 of smooth muscle myosin (1 μM) by PP1c was carried out as described previously (Cohen et al., 1988; Alessi et al., 1992).

[4] = target: T1, PP1c; assay: MLC20 (myosin P-light chain) phosphatase activity of PP1c; assay type: biochemical
Procedure: as §1, §2
(A) The MLC20 phosphatase activity of PP1c was assayed after incubation for 15 minutes at 30° C. in the presence or absence of 1 μM GM-(G63-T93) and either 0.1 μM M110-(M1-F38) or 0.1 nM M110-(M1-E309).
(1-38, open circles) or M110[M1-K35] (1-35, closed circles) were incubated with PP1c for 15 min at 30° C. and reactions started with the ^32P-labelled MLC20 substrate. The results are expressed as a % of the activity determined in control incubations where the M110 peptides were omitted (100%). Similar results were obtained in three separate experiments.
as §3, §4, §5
^32P-labelled myosin P-light chains containing 1.0 mol phosphate per mol subunit was prepared by phosphorylation with smooth muscle myosin light chain kinase. The dephosphorylation of myosin P-light chain (1 μM) was carried out as in [4] and one unit of activity (U) was that amount which catalysed the release of 1 μmole of phosphate in one min. When assaying PP1M in immunoprecipitates from the myofibrillar extracts, the tubes were shaken continuously and 3 nM okadaic acid was included to inhibit any PP2A present.

[5] = tested on: MLC20 and glycogen phosphorylase; assay: MLC20 phosphatase:phosphorylase phosphatase activity ratio of PP1 preparations; assay type: biochemical
Procedure: The M110 and M21 subunits are marked. The activity ratio, MLC20 phosphatase (MP):phosphorylase phosphatase (PhP) of the two preparations is also shown. Similar results were obtained in three different experiments. The activity ratio MP:PhP of PP1c is 0.07.
as §4
PP1M (0.01 ml, 0.4U/ml) was dissociated by incubation for 30 minutes with 500 μM arachidonic acid and then for 30 minutes with 0.08 ml of packed Protein G-Sepharose coupled to 0.08 mg of affinity purified anti-M21 antibody. The Protein G-Sepharose was pelleted, and the supernatant diluted at least 15-fold to allow the M110 subunit and PP1c to recombine. […]

[6] = tested on: M21 subunit; assay: Far Western blotting: interaction with the M21 subunit; assay type: binding, chicken; settings: probe 0.2 μg/ml
Procedure: A) PP1M 5 μg (track 1), 10 μg bacterial extract containing M110-(R714-I1004) (track 2), MBP-M110-(R714-I004) 1 μg (track 3), MBP-M110-(R714-L934) 1 μg (track 4), MBP-M110-(K933-I1004) 1 μg (track 5), MBP 1 μg (track 6), M110-(M1-E309) 2 μg (lane 7) and M110-(M1-S477) 2 μg (track 8) were run on a 12% SDS/polyacrylamide gel and stained with Coomassie Blue. B) same as A) except that 10-fold less protein was electrophoresed and after transfer to nitrocellulose the proteins were probed with digoxigenin-labelled M21 subunit (0.2 μg/ml). C) same as B) except that, after electrophoresis, the proteins were transferred to nitrocellulose and probed with digoxigenin-labelled M21-(M1-L146) (0.2 μg/ml).
A) GST-M21 5 μg (track 1), M21 5 μg (track 2), M21-(M1-L146) 5 μg (track 3), M21-(M1-E110) 20 μg (track 4) and M21-(E110-K186) 5 μg (track 5) were run on 16.5% polyacrylamide gels and stained with Coomassie Blue. The marker proteins ovalbumin (43 kDa) and carbonic anhydrase (29 kDa) are indicated. B) GST-M21 0.5 μg (track 1), M21 0.5 μg (track 2), M21-M1-L146) 0.5 μg (track 3), M21-(M1-E110) 5 μg (track 4) and M21-(E110-K186) 5 μg (track 5) were electrophoresed as in A) and after transfer to nitrocellulose the blots were probed with digoxigenin-labelled MBP-M110-(K933-I1004) (0.2 μg/Ml). C) same as B) except that, after electrophoresis, the proteins were transferred to nitrocellulose and probed with digoxigenin-labelled M21 subunit (0.2 μg/ml).
PP1M (0.5 μAg) was electrophoresed on a 12% SDS/polyacrylamide gel, transferred to nitrocellulose and probed with digoxigenin-labelled M21 subunit (0.2 μg/ml) (track 1) or digoxigenin-labelled M21-(M1-L146) (0.2 μg/ml) (track 2). The positions of the M110 subunit, the M21 subunit and PP1c are marked.
Proteins were labelled with digoxigenin and Far Western analyses carried out as described, except that the digoxigenin-labelled probe was used at a concentration of 0.2 μg/ml instead of 2 μg/ml. SDS/polyacrylamide gel electrophoresis was carried out on 7.5-15% gels according to Laemmli and on 16.5% gels according to Schagger and von Jagow. Protein was estimated according to Bradford.

[7] = target: T2, myosin (Gallus gallus, UniProt P10587); assay: Myosin binding assay (pelleting with myosin); parameters: species or system chicken; settings: myosin 1 μM, 15 min 0° C.
T2 construct: from tissue; host or cells: chicken gizzard
Outline: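 PP1M, PP1c, PP1M(ΔM21) or M110 fragments (30 nM; M110 fragments and M21 at 100 nM) incubated 15 min at 0° C with 1 μM myosin in 10 mM Hepes pH 7.5, 50 mM KCl, 5 mM MgCl2, then centrifuged 2 min at 13,000×g. Supernatant, pellet and total analysed by immunoblot or P-light chain phosphatase activity.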

T1 sequence (P62143 whole entry): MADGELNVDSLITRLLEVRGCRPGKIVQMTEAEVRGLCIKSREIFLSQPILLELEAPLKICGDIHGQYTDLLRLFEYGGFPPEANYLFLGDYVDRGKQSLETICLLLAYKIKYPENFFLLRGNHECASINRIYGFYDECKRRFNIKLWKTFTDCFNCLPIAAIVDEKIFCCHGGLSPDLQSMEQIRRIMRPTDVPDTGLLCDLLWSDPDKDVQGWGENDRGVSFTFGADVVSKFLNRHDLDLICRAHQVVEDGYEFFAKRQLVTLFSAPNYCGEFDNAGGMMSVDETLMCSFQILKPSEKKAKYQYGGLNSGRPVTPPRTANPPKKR
Sequence of M21 subunit (as listed by the source): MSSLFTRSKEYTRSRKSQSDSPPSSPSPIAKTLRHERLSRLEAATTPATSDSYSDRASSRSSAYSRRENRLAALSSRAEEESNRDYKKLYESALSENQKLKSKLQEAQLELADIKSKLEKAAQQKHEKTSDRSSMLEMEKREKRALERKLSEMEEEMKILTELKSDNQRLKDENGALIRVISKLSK
T2 sequence (P10587 whole entry): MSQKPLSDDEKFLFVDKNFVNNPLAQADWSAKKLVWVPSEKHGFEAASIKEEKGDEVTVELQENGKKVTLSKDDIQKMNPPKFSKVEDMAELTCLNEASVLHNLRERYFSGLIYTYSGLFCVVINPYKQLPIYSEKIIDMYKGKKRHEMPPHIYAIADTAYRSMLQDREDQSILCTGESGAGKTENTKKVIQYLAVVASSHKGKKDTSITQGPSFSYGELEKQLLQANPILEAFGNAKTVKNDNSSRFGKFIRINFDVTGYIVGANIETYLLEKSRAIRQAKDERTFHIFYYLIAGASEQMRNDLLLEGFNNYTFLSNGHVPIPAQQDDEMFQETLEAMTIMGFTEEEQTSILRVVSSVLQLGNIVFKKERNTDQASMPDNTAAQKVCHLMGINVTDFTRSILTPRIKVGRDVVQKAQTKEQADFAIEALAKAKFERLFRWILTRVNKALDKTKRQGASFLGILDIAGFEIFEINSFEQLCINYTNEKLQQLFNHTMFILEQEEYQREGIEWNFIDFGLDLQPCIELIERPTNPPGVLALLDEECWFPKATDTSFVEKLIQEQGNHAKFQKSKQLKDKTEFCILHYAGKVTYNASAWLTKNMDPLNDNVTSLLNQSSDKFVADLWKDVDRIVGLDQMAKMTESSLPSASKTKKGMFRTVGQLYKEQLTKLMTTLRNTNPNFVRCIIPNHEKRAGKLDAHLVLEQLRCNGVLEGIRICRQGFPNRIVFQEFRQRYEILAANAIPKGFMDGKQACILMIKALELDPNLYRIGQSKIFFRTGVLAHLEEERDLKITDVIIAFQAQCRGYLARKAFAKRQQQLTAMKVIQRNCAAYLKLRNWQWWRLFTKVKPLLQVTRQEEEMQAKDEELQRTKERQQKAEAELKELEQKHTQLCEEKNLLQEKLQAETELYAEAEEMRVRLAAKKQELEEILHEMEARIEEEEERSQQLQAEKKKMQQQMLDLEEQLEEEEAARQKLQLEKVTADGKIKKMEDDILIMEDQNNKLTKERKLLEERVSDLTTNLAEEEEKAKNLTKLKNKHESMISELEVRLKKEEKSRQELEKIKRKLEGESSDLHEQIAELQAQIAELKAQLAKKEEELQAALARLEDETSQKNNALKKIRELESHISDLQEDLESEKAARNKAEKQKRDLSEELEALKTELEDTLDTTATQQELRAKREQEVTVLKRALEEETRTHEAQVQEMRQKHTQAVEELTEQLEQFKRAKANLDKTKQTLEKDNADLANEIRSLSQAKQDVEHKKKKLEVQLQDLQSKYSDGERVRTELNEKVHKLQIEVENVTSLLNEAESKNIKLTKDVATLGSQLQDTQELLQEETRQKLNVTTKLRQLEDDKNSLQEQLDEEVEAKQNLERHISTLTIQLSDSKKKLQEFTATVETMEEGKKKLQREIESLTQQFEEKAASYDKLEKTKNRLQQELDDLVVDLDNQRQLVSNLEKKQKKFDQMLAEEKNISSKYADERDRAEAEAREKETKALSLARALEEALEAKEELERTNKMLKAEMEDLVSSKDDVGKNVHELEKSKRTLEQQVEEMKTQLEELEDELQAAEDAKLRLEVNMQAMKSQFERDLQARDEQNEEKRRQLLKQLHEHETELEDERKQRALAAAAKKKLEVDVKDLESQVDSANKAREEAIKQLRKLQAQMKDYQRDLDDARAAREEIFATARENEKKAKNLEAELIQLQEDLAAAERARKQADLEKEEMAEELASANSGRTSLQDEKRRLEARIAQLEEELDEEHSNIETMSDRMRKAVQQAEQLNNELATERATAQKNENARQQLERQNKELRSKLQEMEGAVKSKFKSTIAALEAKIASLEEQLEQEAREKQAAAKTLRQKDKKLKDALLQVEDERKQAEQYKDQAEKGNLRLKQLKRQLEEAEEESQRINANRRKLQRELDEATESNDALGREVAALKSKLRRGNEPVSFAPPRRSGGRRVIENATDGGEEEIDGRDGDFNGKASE
T2 sequence (P02612 whole entry partner): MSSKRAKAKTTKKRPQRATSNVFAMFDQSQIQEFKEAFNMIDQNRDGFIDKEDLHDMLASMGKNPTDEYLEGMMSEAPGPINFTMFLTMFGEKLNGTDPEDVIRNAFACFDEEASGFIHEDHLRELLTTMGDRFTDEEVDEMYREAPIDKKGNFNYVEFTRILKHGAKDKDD
T2 sequence (P02607 whole entry partner): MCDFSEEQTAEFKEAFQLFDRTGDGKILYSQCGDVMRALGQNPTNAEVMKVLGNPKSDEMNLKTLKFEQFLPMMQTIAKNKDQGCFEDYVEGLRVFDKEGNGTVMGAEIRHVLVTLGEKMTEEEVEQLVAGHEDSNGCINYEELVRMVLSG

B1: NIPP-1: nuclear inhibitor of PP1 (protein, UniProt Q12972 1-351, looked up)
Nuclear inhibitor of protein …: MAAAANSGSSLPLFDCPTWAGKPPPGLHLDVVKGDKLIEKLIIDEKKYYLFGRNPDLCDFTIDHQSCSRVHAALVYHKHLKRVFLIDLNSTHGTFLGHIRLEPHKPQQIPIDSTVSFGASTRAYTLREKPQTLPSAVKGDEKMGGEDDELKGLLGLPEEETELDNLTEFNTAHNKRISTLTIEEGNLDIQRPKRKRKNSRVTFSEDDEIINPEDVDPSVGRFRNMVQTAVVPVKKKRVEGPGSLGLEESGSRRMQNFAFSGGLYGGLPPTHSEAGSQPHGIHGTALIGGLPMPYPNLAPDVDLTPVVPSAVNMNPAPNPAVYNPEAVNEPKKKKYAKEAWPGKKPTPSLLI
Ki [1]: 1 pM

B2: M110-(D39-E309): rat aorta M110 fragment, residues 39-309, containing the seven ankyrin repeats (protein, UniProt Q10728 39-309, looked up, fragment)
chain: DDGAVFLAACSSGDTDEVLKLLHRGADINYANVDGLTALHQACIDDNVDMVKFLVENGANINQPDNEGWIPLHAAASCGYLDIAEFLIGQGAHVGAVNSEGDTPLDIAEEEAMEELLQNEVNRQGVDIEAARKEEERIMLRDARQWLNSGHISDVRHAKSGGTALHVAAAKGYTEVLKLLIQAGYDVNIKDYDGWTPLHAAAHWGKEEACRILVDNLCDMETVNKVGQTAFDVADEDILGYLEELQKKQNLLHSEKRDKKSPLIESTANME
effect on the phosphorylase phosphatase activity of PP1GL [2]: can enhance the phosphorylase activity of PP1GL
effect on the phosphorylase phosphatase activity of PP1c [3]: did not inhibit the phosphorylase phosphatase activity of PP1c
effect on the phosphorylase phosphatase activity of PP1c ([3]; each peptide individually, at concentrations up to 1 μM): no effect
effect on the MLC20 phosphatase activity of PP1c [4]: failed to stimulate the MLC20 phosphatase activity of PP1c

B3: PP1c: catalytic subunit of PP1 (protein)
chain: ADGELNVDSLITRLLEVRGCRPGKIVQMTEAEVRGLCIKSREIFLSQPILLELEAPLKICGDIHGQYTDLLRLFEYGGFPPEANYLFLGDYVDRGKQSLETICLLLAYKIKYPENFFLLRGNHECASINRIYGFYDECKRRFNIKLWKTFTDCFNCLPIAAIVDEKIFCCHGGLSPDLQSMEQIRRIMRPTDVPDTGLLCDLLWSDPDKDVQGWGENDRGVSFTFGADVVSKFLNRHDLDLICRAHQVVEDGYEFFAKRQLVTLFSAPNYCGEFDNAGGMMSVDETLMCSFQILKPSEKKAKYQYGGLNSGRPVTPPRTANPPKKR
MLC20 phosphatase:phosphorylase phosphatase activity ratio [5]: 0.07
recognised by digoxigenin-labelled M21 subunit in Far Western blotting [6]: not
binding to myosin [7]: neither PP1c (FIG. 22) nor bovine serum albumin (data not shown) bound to myosin
